We go through 41 sequences from the supplement of paper PMC11780869.

The test system of this data set is Bacillus subtilis. The data set can be described thus: cleaved RNA product abundance (RNA/gDNA barcode ratio) relative to median wild-type variant (ratio to wild type); higher = more accumulation of the downstream cleavage product. The note with it: cleavage site: cggR-gapA (positions -7 to +36 mutated). The essentials: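 Oligos with a 9% error rate were used to build barcoded, mutagenized RNase Y cleavage-site windows within truncated aprE or tetM reporter mRNAs, which were integrated into the B. subtilis chromosome. Cultures were grown in LB at 37°C between OD600 0.0003 and 0.3. Cleaved RNA was gel-selected, reverse transcribed and barcode-sequenced, as were genomic DNA barcodes, and UMIs were collapsed. Cleaved product abundance is the scaled RNA:gDNA barcode ratio, with the median construct carrying the unmutated site as reference.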

The mark [1] stands for this setting: experiment (reporter, strain, medium): exp 2b: truncated aprE reporter, strain BJT200.
Setting [2] is: experiment (reporter, strain, medium): exp 4a: truncated aprE reporter, strain BJT201 with 2% xylose (RNase J1 expressed).

For “ACAGACGAAGGAGCCGCAAAGAAGTTACTAAGTGATGAATAATCCCTCAATATAAATATCTCTCACTTATTTAAA”, the “cleaved RNA product abundance” value turned out to be 0.0989 under setting [1] and 0.102 under setting [2].

As for “ACAGACGAAGGAGCCGCAAAGAAGTTACTAATGGATGAATAATCCCTCAATATAAATATCTCTCACTTATTTAAA”, the “cleaved RNA product abundance” value stood at 0.112 under setting [1] and 0.172 under setting [2].

With “ACAGACGAAGGAGCCGCAAAGAAGTTACTATGGGATGAATAATCCCTCAATATAAATATCTCTCACTTATTTAAA”, the “cleaved RNA product abundance” value under setting [2] is 0.228.

For the sequence “ACAGACGAAGGAGCCGCAAAGAAGTTAGAAAGGGATGAATAATCCCTCAATATAAATATCTCTCACTTATTTAAA”, the “cleaved RNA product abundance” value under setting [2] is 0.426.

Regarding “ACAGACGAAGGAGCCGCAAAGAAGTTAGTAAGCGATGAATAATCCCTCAATATAAATATCTCTCACTTATTTAAA”, the “cleaved RNA product abundance” value under setting [2] was 0.0715.

For “ACAGACGAAGGAGCCGCAAAGAAGTTAGTAAGGAATGAATAATCCCTCAATATAAATATCTCTCACTTATTTAAA”, the “cleaved RNA product abundance” value under setting [1] amounted to 0.0912.

For “ACAGACGAAGGAGCCGCAAAGAAGTTAGTAAGGGAAGAATAATCCCTCAATATAAATATCTCTCACTTATTTAAA”, the “cleaved RNA product abundance” value under setting [2] turned out to be 0.302.

In the case of “ACAGACGAAGGAGCCGCAAAGAAGTTAGTAAGGGAGGAATAATCCCTCAATATAAATATCTCTCACTTATTTAAA”, the “cleaved RNA product abundance” value reads like this: under setting [1], 0.123; under setting [2], 0.199.

Consider “ACAGACGAAGGAGCCGCAAAGAAGTTAGTAAGGGATCAATAATCCCTCAATATAAATATCTCTCACTTATTTAAA”, for which the “cleaved RNA product abundance” value under setting [2] is 0.305.

As for “ACAGACGAAGGAGCCGCAAAGAAGTTAGTAAGGGATGAATAAACCCTCAATATAAATATCTCTCACTTATTTAAA”, under setting [2], the “cleaved RNA product abundance” value was 0.158.

On to “ACAGACGAAGGAGCCGCAAAGAAGTTAGTAAGGGATGAATAATACCTCAATATAAATATCTCTCACTTATTTAAA”, for which, under setting [2], the “cleaved RNA product abundance” value came out at 0.151.

Consider “ACAGACGAAGGAGCCGCAAAGAAGTTAGTAAGGGATGAATAATCCATCAATATAAATATCTCTCACTTATTTAAA”, for which, under setting [1], the “cleaved RNA product abundance” value stood at 0.251.

Regarding “ACAGACGAAGGAGCCGCAAAGAAGTTAGTAAGGGATGAATAATCCCTCAATATAAATATCTCTCACTTATTTAAA”, the “cleaved RNA product abundance” value under setting [1] amounted to 0.306; the “cleaved RNA product abundance” value under setting [2] amounted to 0.443; the “cleaved RNA product abundance” value (experiment (reporter, strain, medium): exp 6: tetM reporter, strain 168) amounted to 0.559.

Consider “ACAGACGAAGGAGCCGCAAAGAAGTTAGTAAGGGATGAATAATCCCTCAATATAAATGTCTCTCACTTATTTAAA”, for which the “cleaved RNA product abundance” value under setting [1] was determined as 0.187.

On to “ACAGACGAAGGAGCCGCAAAGAAGTTAGTAAGGGATGAATAATCCCTTAATATAAATATCTCTCACTTATTTAAA”, for which the “cleaved RNA product abundance” value under setting [2] stood at 0.724.

Turning to “ACAGACGAAGGAGCCGCAAAGAAGTTAGTAAGGGATGAATAATCCGTCAATATAAATATCTCTCACTTATTTAAA”, under setting [2], the “cleaved RNA product abundance” value turned out to be 0.218.

As for “ACAGACGAAGGAGCCGCAAAGAAGTTAGTAAGGGATGAATAATCCTTCAATATAAATATCTCTCACTTATTTAAA”, the “cleaved RNA product abundance” value under setting [1] came to 0.29.

On to “ACAGACGAAGGAGCCGCAAAGAAGTTAGTAAGGGATTAATAATCCCTCAATATAAATATCTCTCACTTATTTAAA”, for which the “cleaved RNA product abundance” value under setting [2] stood at 0.406.

With “ACAGACGAAGGAGCCGCAAAGAAGTTAGTAAGGTATGAATAATCCCTCAATATAAATATCTCTCACTTATTTAAA”, the “cleaved RNA product abundance” value under setting [2] was 0.135.

For “ACAGACGAAGGAGCCGCAAAGAAGTTAGTAATGGATGAATAATCCCTCAATATAAATATCTCTCACTTATTTAAA”, the “cleaved RNA product abundance” value under setting [2] amounted to 0.141.

As for “ACAGACGAAGGAGCCGCAAAGAAGTTAGTACGGGATGAATAATCCCTCAATATAAATATCTCTCACTTATTTAAA”, under setting [1], the “cleaved RNA product abundance” value was 0.269.

As to “ACAGACGAAGGAGCCGCAAAGAAGTTATAAAAGGATAAATAATCCCTCAATATAAATATCTCTCACTTATTTAAA”, under setting [1], the “cleaved RNA product abundance” value stood at 0.141.

In the case of “ACAGACGAAGGAGCCGCAAAGAAGTTATAAAAGGATGAATAATCCCTCAATATAAATATCTCTCACTTATTTAAA”, the “cleaved RNA product abundance” value was found to be 0.153 under setting [1] and 0.165 under setting [2].

Turning to “ACAGACGAAGGAGCCGCAAAGAAGTTATAAACGGATGAATAATCCCTCAATATAAATATCTCTCACTTATTTAAA”, the “cleaved RNA product abundance” value was 0.132 under setting [1] and 0.181 under setting [2].

“ACAGACGAAGGAGCCGCAAAGAAGTTATAAAGAGATGAATAATCCCTCAATATAAATATCTCTCACTTATTTAAA”: the “cleaved RNA product abundance” value under setting [1] was 0.11 and the “cleaved RNA product abundance” value under setting [2] is 0.137.

For the sequence “ACAGACGAAGGAGCCGCAAAGAAGTTATAAAGGAATGAATAATCCCTCAATATAAATATCTCTCACTTATTTAAA”, the “cleaved RNA product abundance” value reads like this: under setting [1], 0.0926; under setting [2], 0.124.

For “ACAGACGAAGGAGCCGCAAAGAAGTTATAAAGGCATGAATAATCCCTCAATATAAATATCTCTCACTTATTTAAA”, the “cleaved RNA product abundance” value reads like this: under setting [1], 0.122; under setting [2], 0.113.

Take “ACAGACGAAGGAGCCGCAAAGAAGTTATAAAGGGAAGAATAATCCCTCAATATAAATATCTCTCACTTATTTAAA”: the “cleaved RNA product abundance” value reads like this: under setting [1], 0.174; under setting [2], 0.322.

Regarding “ACAGACGAAGGAGCCGCAAAGAAGTTATAAAGGGACGAATAATCCCTCAATATAAATATCTCTCACTTATTTAAA”, the “cleaved RNA product abundance” value under setting [2] is 0.326.

Take “ACAGACGAAGGAGCCGCAAAGAAGTTATAAAGGGATAAATAATCCCTCAATATAAATATCTCTCACTTATTTAAA”: the “cleaved RNA product abundance” value under setting [1] stood at 0.316 and the “cleaved RNA product abundance” value under setting [2] came out at 0.358.

On to “ACAGACGAAGGAGCCGCAAAGAAGTTATAAAGGGATCAATAATCCCTCAATATAAATATCTCTCACTTATTTAAA”, for which the “cleaved RNA product abundance” value is, setting by setting: under setting [1], 0.26; under setting [2], 0.434.

Turning to “ACAGACGAAGGAGCCGCAAAGAAGTTATAAAGGGATGAAAAATCCCTCAATATAAATATCTCTCACTTATTTAAA”, the “cleaved RNA product abundance” value under setting [2] is 0.4.

Consider “ACAGACGAAGGAGCCGCAAAGAAGTTATAAAGGGATGAACAATCCCTCAATATAAATATCTCTCACTTATTTAAA”, for which the “cleaved RNA product abundance” value under setting [1] was 0.261.

Take “ACAGACGAAGGAGCCGCAAAGAAGTTATAAAGGGATGAATAAACCCTCAATATAAATATCTCTCACTTATTTAAA”: the “cleaved RNA product abundance” value was 0.145 under setting [1] and 0.197 under setting [2].

Turning to “ACAGACGAAGGAGCCGCAAAGAAGTTATAAAGGGATGAATAACCCCTCAATATAAATATCTCTCACTTATTTAAA”, the “cleaved RNA product abundance” value under setting [2] worked out at 0.261.

Take “ACAGACGAAGGAGCCGCAAAGAAGTTATAAAGGGATGAATAAGCCCTCAATATAAATATCTCTCACTTATTTAAA”: the “cleaved RNA product abundance” value under setting [2] worked out at 0.172.

“ACAGACGAAGGAGCCGCAAAGAAGTTATAAAGGGATGAATAATCACTCAATATAAATATCTCTCACTTATTTAAA”: the “cleaved RNA product abundance” value runs as follows: under setting [1], 0.107; under setting [2], 0.169.

For “ACAGACGAAGGAGCCGCAAAGAAGTTATAAAGGGATGAATAATCCATCAATATAAATATCTCTCACTTATTTAAA”, the “cleaved RNA product abundance” value under setting [2] was 0.26.

Regarding “ACAGACGAAGGAGCCGCAAAGAAGTTATAAAGGGATGAATAATCCCACAATATAAATATCTCTCACTTATTTAAA”, the “cleaved RNA product abundance” value under setting [1] came to 0.175 and the “cleaved RNA product abundance” value under setting [2] was determined as 0.183.

With “ACAGACGAAGGAGCCGCAAAGAAGTTATAAAGGGATGAATAATCCCTAAATATAAATATCTCTCACTTATTTAAA”, under setting [2], the “cleaved RNA product abundance” value was 0.626.

In the case of “ACAGACGAAGGAGCCGCAAAGAAGTTATAAAGGGATGAATAATCCCTCAAAATAAATATCTCTCACTTATTTAAA”, the “cleaved RNA product abundance” value under setting [2] was found to be 0.292.
